B1: Example 367 (peptide)
peptide: YXEGTFTSDYSIXLDKKAQXEFIEXLIAGGPSSGAPPPS
modifications: Aib2; αMeL13; K17 conjugated to (2-[2-(2-Amino-ethoxy)-ethoxy]-acetyl)2-(γ-Glu)-CO-(CH2)18-CO2H; Aib20; αMeY25; C-terminal amide
B2: Example 379 (peptide)
peptide: XXEGTFTSDYSIXLDKKAQXEFIEXLIEGGPSSGAPPPS
modifications: D-Tyr1; Aib2; αMeL13; K17 conjugated to (2-[2-(2-Amino-ethoxy)-ethoxy]-acetyl)2-(γ-Glu)-CO-(CH2)18-CO2H; Aib20; αMeY25; C-terminal amide
B3: Example 375 (peptide)
peptide: XXEGTFTSDYSIXLDXKAQXEFIEXLIAGGPSSGAPPPS
modifications: D-Tyr1; Aib2; αMeL13; Orn16; K17 conjugated to (2-[2-(2-Amino-ethoxy)-ethoxy]-acetyl)2-(γ-Glu)-CO-(CH2)16-CO2H; Aib20; αMeY25; C-terminal amide
B4: Example 370 (peptide)
peptide: XXEGTFTSDYSIXLDXKAQXEFIEYLIAGGPSSG
modifications: D-Tyr1; Aib2; αMeL13; Orn16; K17 conjugated to (2-[2-(2-Amino-ethoxy)-ethoxy]-acetyl)2-(γ-Glu)-CO-(CH2)18-CO2H; Aib20; C-terminal amide
B5: Example 2 (peptide)
peptide: YXEGTXTSDYSIXLDXKAQXEFIXYLIEGGPSSGAPPPS
modifications: Aib2; αMeF(2F)6; αMeL13; Orn16; K17((2-[2-(2-Amino-ethoxy)-ethoxy]-acetyl)2-(γ-Glu)-CO-(CH2)16-CO2H); Aib20; D-Glu24; C-terminal amide
B6: Example 363 (peptide)
peptide: XXEGTFTSDYSIXLDXKAQXAFIXYLIAGGPSSGAPPPS
modifications: D-Tyr1; Aib2; αMeL13; Orn16; K17 conjugated to (2-[2-(2-Amino-ethoxy)-ethoxy]-acetyl)2-(γ-Glu)-CO-(CH2)16-CO2H; Aib20; D-Glu24; C-terminal amide
B7: Example 371 (peptide)
peptide: XXEGTFTSDYSIXLDXKAQXEFIEYLIAGGPSSGAPPPS
modifications: D-Tyr1; Aib2; αMeL13; Orn16; K17 conjugated to (2-[2-(2-Amino-ethoxy)-ethoxy]-acetyl)-(γ-Glu)-CO-(CH2)18-CO2H; Aib20; C-terminal amide
B8: Example 1 (peptide)
peptide: YXEGTXTSDYSIXLDEKAQXEFIXYLIEGGPSSGAPPPS
modifications: Aib2; αMeF(2F)6; αMeL13; K17((2-[2-(2-Amino-ethoxy)-ethoxy]-acetyl)2-(γ-Glu)-CO-(CH2)18-CO2H); Aib20; D-Glu24; C-terminal amide
B9: Example 4 (peptide)
peptide: YXEGTXTSDXSIXLDXKAQXEFIXXLIEGGPSSGAPPPS
modifications: Aib2; αMeF(2F)6; 4Pal10; αMeL13; Orn16; K17((2-[2-(2-Amino-ethoxy)-ethoxy]-acetyl)2-(γ-Glu)-CO-(CH2)16-CO2H); Aib20; D-Glu24; αMeY25; C-terminal amide
B10: Example 368 (peptide)
peptide: XXEGTFTSDYSIXLDXKAQXEFIEYLIAGGPSSGAPPPS
modifications: D-Tyr1; Aib2; αMeL13; Orn16; K17 conjugated to (2-[2-(2-Amino-ethoxy)-ethoxy]-acetyl)2-(γ-Glu)-CO-(CH2)16-CO2H; Aib20; C-terminal amide
B11: Example 5 (peptide)
peptide: YXEGTXTSDVSIXLDXKAQXEFIXXLIEGGPSSGAPPPS
modifications: Aib2; αMeF(2F)6; αMeL13; Orn16; K17((2-[2-(2-Amino-ethoxy)-ethoxy]-acetyl)2-(γ-Glu)-CO-(CH2)16-CO2H); Aib20; D-Glu24; αMeY25; C-terminal amide
B12: Example 3 (peptide)
peptide: YXEGTXTSDYSIXLDXKAQXEFIXYLIEGGPSSGAPPPS
modifications: Aib2; αMeF(2F)6; αMeL13; Orn16; K17((2-[2-(2-Amino-ethoxy)-ethoxy]-acetyl)2-(γ-Glu)-CO-(CH2)18-CO2H); Aib20; D-Glu24; C-terminal amide
B13: Example 380 (peptide)
peptide: XXEGTFTSDYSIXLDXKAQXEFIEXLIEGGPSSGAPPPS
modifications: D-Tyr1; Aib2; αMeL13; Orn16; K17 conjugated to (2-[2-(2-Amino-ethoxy)-ethoxy]-acetyl)2-(γ-Glu)-CO-(CH2)18-CO2H; Aib20; αMeY25; C-terminal amide
B14: Example 361 (peptide)
peptide: XXEGTFTSDYSIXLDKKAQXAFVXYLIAGGPSSGAPPPS
modifications: D-Tyr1; Aib2; αMeL13; K17 conjugated to (2-[2-(2-Amino-ethoxy)-ethoxy]-acetyl)2-(γ-Glu)-CO-(CH2)18-CO2H; Aib20; D-Glu24; C-terminal amide
B15: Example 378 (peptide)
peptide: XXEGTFTSDYSIXLDKKAQXEFIEYLIAGGPSSGAPPPS
modifications: D-Tyr1; Aib2; αMeL13; K17 conjugated to (2-[2-(2-Amino-ethoxy)-ethoxy]-acetyl)-(γ-Glu)-CO-(CH2)18-CO2H; Aib20; C-terminal amide
B16: Example 364 (peptide)
peptide: XXEGTFTSDYSIXLDXKAQXAFVXYLIAGGPSSGAPPPS
modifications: D-Tyr1; Aib2; αMeL13; Orn16; K17 conjugated to (2-[2-(2-Amino-ethoxy)-ethoxy]-acetyl)2-(γ-Glu)-CO-(CH2)16-CO2H; Aib20; D-Glu24; C-terminal amide
B17: Example 362 (peptide)
peptide: XXEGTFTSDYSIXLDXKAQXAFVXYLIAGGPSSGAPPPS
modifications: D-Tyr1; Aib2; αMeL13; Orn16; K17 conjugated to (2-[2-(2-Amino-ethoxy)-ethoxy]-acetyl)2-(γ-Glu)-CO-(CH2)18-CO2H; Aib20; D-Glu24; C-terminal amide
B18: Example 365 (peptide)
peptide: XXEGTFTSDYSIXLDKKAQXAFIEXLIAGGPSSGAPPPS
modifications: D-Tyr1; Aib2; αMeL13; K17 conjugated to (2-[2-(2-Amino-ethoxy)-ethoxy]-acetyl)2-(γ-Glu)-CO-(CH2)18-CO2H; Aib20; αMeY25; C-terminal amide
B19: Example 377 (peptide)
peptide: XXEGTFTSDYSIXLDXKAQXAFIEXLIAGGPSSGAPPPS
modifications: D-Tyr1; Aib2; αMeL13; Orn16; K17 conjugated to (2-[2-(2-Amino-ethoxy)-ethoxy]-acetyl)2-(γ-Glu)-CO-(CH2)16-CO2H; Aib20; αMeY25; C-terminal amide
B20: Example 372 (peptide)
peptide: XXEGTFTSDYSIXLDKKAQXEFIEXLIAGGPSSGAPPPS
modifications: D-Tyr1; Aib2; αMeL13; K17 conjugated to (2-[2-(2-Amino-ethoxy)-ethoxy]-acetyl)-(γ-Glu)-CO-(CH2)18-CO2H; Aib20; αMeY25; C-terminal amide
B21: Example 374 (peptide)
peptide: XXEGTFTSDYSIXLDKKAQXEFIEXLIAGGPSSGAPPPS
modifications: D-Tyr1; Aib2; αMeL13; K17 conjugated to (2-[2-(2-Amino-ethoxy)-ethoxy]-acetyl)2-(γ-Glu)-CO-(CH2)16-CO2H; Aib20; αMeY25; C-terminal amide
B22: Example 376 (peptide)
peptide: XXEGTFTSDYSIXLDKKAQXAFIEXLIAGGPSSGAPPPS
modifications: D-Tyr1; Aib2; αMeL13; K17 conjugated to (2-[2-(2-Amino-ethoxy)-ethoxy]-acetyl)2-(γ-Glu)-CO-(CH2)16-CO2H; Aib20; αMeY25; C-terminal amide
B23: Example 369 (peptide)
peptide: XXEGTFTSDYSIXLDXKAQXDFIEYLIAGGPSSGAPPPS
modifications: D-Tyr1; Aib2; αMeL13; Orn16; K17 conjugated to (2-[2-(2-Amino-ethoxy)-ethoxy]-acetyl)2-(γ-Glu)-CO-(CH2)18-CO2H; Aib20; C-terminal amide
B24: Example 366 (peptide)
peptide: XXEGTFTSDYSIXLDXKAQXAFIEXLIAGGPSSGAPPPS
modifications: D-Tyr1; Aib2; αMeL13; Orn16; K17 conjugated to (2-[2-(2-Amino-ethoxy)-ethoxy]-acetyl)2-(γ-Glu)-CO-(CH2)18-CO2H; Aib20; αMeY25; C-terminal amide
B25: Example 373 (peptide)
peptide: XXEGTFTSDYSIXLDKKAQXAFIEXLIAGGPSSGAPPPS
modifications: D-Tyr1; Aib2; αMeL13; K17 conjugated to (2-[2-(2-Amino-ethoxy)-ethoxy]-acetyl)-(γ-Glu)-CO-(CH2)18-CO2H; Aib20; αMeY25; C-terminal amide

Assays:
Assay in all cases: cell-based or functional assay
[1] = target: T1, human gastric inhibitory peptide receptor (GIPR) (human, UniProt P48546 22-466)
T1 sequence (looked up): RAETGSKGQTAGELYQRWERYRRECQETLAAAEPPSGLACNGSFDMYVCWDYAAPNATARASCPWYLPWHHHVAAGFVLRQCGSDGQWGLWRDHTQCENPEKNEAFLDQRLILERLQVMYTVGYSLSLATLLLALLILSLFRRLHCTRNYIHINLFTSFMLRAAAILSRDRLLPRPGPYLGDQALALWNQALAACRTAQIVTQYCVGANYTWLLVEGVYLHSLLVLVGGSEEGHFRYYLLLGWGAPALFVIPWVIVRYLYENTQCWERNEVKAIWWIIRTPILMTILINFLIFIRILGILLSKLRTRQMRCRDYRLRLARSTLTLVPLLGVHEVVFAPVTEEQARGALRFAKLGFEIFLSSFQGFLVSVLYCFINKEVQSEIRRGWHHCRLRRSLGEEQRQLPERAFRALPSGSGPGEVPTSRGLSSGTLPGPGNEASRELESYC

[2] = target: human GLP-1 receptor (GLP-1R) (human, UniProt P43220 24-463)
[3] = target: T2, human GIP receptor (human, UniProt P48546 22-466)
T2 sequence (looked up): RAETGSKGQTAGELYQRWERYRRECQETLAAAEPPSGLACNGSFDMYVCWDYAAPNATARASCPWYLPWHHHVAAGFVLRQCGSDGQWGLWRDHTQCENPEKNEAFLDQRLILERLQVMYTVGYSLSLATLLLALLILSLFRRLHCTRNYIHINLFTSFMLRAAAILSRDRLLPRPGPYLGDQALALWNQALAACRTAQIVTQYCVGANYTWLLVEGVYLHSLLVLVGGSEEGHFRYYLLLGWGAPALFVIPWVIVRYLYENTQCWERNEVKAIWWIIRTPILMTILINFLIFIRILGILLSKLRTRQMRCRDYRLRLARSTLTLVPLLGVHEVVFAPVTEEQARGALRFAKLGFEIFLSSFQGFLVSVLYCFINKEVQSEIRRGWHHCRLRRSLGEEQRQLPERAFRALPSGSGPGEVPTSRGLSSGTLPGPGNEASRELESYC

[4] = target: human GLP-1 receptor (human, UniProt P43220 24-463)
[5] = target: human glucagon receptor (human, UniProt P47871 26-477)
human glucagon receptor, sequence (P47871 26-477): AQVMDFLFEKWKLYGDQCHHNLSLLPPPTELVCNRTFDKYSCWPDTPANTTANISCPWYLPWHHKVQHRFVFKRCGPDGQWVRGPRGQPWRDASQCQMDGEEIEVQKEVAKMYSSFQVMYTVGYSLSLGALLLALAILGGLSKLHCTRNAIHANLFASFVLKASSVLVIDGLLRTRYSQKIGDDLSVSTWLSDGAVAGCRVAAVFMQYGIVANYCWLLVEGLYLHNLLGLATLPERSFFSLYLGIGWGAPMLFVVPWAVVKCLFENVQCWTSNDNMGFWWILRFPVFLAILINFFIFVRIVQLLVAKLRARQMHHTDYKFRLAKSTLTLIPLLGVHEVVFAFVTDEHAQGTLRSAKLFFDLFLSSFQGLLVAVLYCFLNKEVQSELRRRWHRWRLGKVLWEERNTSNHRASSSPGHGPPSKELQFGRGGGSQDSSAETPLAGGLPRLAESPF
Throughout, for hGIPR cAMP EC50 ratio: reference of the scale not given here.
Throughout, for hGLP1R cAMP EC50 ratio: reference of the scale not given here.

Row | Binder | hGIPR cAMP EC50 ratio [1] [ratio] | hGIPR cAMP Rel EC50 [1] [nM] | hGLP1R cAMP EC50 ratio [2] [ratio] | hGLP1R cAMP Rel EC50 [2] [nM] | cAMP EC50 [3] [nM] | cAMP EC50 [4] [nM] | cAMP EC50 [5] [nM]
1 | B1 | 5.85 | 0.0179 | 0.386 | 0.0641 | – | – | –
2 | B2 | 0.672 | 0.079 | 0.114 | 0.238 | – | – | –
3 | B3 | 1.13 | 0.0471 | 0.178 | 0.152 | – | – | –
4 | B4 | 0.704 | 0.117 | 0.172 | 0.186 | – | – | –
5 | B5 | – | – | – | – | 2.64 | 6.52 | > 10900
6 | B6 | 0.835 | 0.145 | 0.146 | 0.208 | – | – | –
7 | B7 | 0.393 | 0.135 | 0.206 | 0.132 | – | – | –
8 | B8 | – | – | – | – | 38.5 | 53.3 | > 11400
9 | B9 | – | – | – | – | 1.03 | 2.02 | > 10900
10 | B10 | 0.109 | 0.0757 | 0.299 | 0.108 | – | – | –
11 | B11 | – | – | – | – | 1.98 | 1.61 | > 10900
12 | B12 | – | – | – | – | 9.24 | 19.4 | > 10900
13 | B13 | 0.374 | 0.142 | 0.115 | 0.236 | – | – | –
14 | B14 | 0.261 | 0.401 | 0.0259 | 0.955 | – | – | –
15 | B15 | 0.793 | 0.067 | 0.142 | 0.191 | – | – | –
16 | B16 | 0.347 | 0.351 | 0.0303 | 1 | – | – | –
17 | B17 | 0.347 | 0.302 | 0.0805 | 0.365 | – | – | –
18 | B18 | 0.784 | 0.0678 | 0.155 | 0.175 | – | – | –
19 | B19 | 0.976 | 0.0544 | 0.199 | 0.136 | – | – | –
20 | B20 | 0.68 | 0.0781 | 0.0741 | 0.365 | – | – | –
21 | B21 | 1.76 | 0.0468 | 0.169 | 0.19 | – | – | –
22 | B22 | 0.734 | 0.0723 | 0.159 | 0.17 | – | – | –
23 | B23 | 0.499 | 0.166 | 0.319 | 0.101 | – | – | –
24 | B24 | 0.598 | 0.0889 | 0.074 | 0.366 | – | – | –
25 | B25 | 0.287 | 0.185 | 0.0621 | 0.436 | – | – | –

From patent US20220048967A1 (published 2022)
